One data set deals with CDP (CUX1) (UniProt P39880 P39880:1-1505). The experiment in a line: EMSA. The conditions noted are these: tags: pCITE-CDP, TNT reticulocyte lysate; label: radiolabel.
Data set [1] addresses T1, PDX1 (UniProt P52945 P52945:1-283). The experiment in a line: EMSA. The conditions noted are these: tags: pCITE-PDX1, TNT reticulocyte lysate; label: radiolabel.
The target in the next data set is T2, SATB1 (UniProt Q01826 Q01826:1-763).
T2 sequence: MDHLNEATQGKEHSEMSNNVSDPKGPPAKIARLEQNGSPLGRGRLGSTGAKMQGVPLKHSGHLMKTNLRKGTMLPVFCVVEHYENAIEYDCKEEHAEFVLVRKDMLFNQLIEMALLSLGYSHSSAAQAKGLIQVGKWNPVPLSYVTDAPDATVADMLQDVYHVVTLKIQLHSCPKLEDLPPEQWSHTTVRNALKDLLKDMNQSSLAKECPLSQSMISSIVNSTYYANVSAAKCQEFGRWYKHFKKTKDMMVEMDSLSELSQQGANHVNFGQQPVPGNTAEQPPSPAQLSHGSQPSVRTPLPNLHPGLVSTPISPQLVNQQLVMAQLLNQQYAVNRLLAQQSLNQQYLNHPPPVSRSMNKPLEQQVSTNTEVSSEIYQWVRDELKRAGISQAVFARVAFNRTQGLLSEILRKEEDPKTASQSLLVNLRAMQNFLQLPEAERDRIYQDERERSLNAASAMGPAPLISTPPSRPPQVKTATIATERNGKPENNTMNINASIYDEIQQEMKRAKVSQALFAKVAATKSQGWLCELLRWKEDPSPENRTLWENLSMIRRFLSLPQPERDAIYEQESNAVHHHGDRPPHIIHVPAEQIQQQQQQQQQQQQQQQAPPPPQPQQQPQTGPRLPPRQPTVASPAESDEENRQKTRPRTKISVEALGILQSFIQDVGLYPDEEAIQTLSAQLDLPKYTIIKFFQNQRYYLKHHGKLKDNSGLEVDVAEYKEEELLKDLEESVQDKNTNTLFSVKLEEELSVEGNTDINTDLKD
Kind of data set: EMSA. The conditions noted are these: tags: pCITE-SATB1, TNT reticulocyte lysate; label: radiolabel. (In EMSA bound probe runs differently from free probe, usually more slowly.)

Data set [2] addresses T1, PDX1. Kind of data set: EMSA; positive control. The conditions noted are these: tags: pCITE-PDX1, TNT reticulocyte lysate; label: radiolabel.

CDP (CUX1), sequence (P39880 whole entry, one chain of several): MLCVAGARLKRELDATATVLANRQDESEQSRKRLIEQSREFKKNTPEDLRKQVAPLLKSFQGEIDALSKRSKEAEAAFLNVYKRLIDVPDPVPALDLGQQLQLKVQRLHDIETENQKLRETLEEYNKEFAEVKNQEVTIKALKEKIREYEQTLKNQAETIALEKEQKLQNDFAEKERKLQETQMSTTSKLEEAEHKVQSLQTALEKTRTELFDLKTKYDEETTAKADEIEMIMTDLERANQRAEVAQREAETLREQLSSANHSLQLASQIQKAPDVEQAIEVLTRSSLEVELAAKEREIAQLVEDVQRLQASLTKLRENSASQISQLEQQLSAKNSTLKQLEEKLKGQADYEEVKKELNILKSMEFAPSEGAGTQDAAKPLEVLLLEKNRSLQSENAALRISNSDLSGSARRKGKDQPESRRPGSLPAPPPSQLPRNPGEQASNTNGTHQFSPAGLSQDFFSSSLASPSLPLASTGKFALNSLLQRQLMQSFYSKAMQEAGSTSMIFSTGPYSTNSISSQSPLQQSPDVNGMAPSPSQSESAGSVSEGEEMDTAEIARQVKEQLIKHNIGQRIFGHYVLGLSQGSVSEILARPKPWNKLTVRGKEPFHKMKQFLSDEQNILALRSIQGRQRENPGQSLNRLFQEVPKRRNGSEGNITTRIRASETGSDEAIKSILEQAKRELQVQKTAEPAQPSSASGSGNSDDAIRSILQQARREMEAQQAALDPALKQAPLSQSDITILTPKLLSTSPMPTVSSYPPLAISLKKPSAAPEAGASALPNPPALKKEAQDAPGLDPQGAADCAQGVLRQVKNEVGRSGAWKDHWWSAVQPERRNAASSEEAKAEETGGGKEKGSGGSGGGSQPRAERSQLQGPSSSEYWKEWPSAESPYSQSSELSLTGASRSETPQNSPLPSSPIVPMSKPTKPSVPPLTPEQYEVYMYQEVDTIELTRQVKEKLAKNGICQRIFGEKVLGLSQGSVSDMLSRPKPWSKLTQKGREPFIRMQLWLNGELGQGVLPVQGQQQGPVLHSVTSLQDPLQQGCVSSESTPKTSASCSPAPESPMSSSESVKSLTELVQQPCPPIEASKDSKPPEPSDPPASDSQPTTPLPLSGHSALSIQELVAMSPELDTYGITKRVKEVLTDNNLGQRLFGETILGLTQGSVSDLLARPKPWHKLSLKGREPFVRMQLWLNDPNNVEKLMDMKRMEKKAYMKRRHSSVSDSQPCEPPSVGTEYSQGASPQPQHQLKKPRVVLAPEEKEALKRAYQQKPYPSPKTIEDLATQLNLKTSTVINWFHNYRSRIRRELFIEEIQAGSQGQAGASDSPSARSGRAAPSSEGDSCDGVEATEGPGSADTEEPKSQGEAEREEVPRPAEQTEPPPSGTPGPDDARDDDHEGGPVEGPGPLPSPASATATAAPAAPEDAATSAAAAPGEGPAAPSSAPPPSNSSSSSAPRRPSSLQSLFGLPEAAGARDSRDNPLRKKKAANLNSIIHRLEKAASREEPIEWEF
T1 sequence (P52945 whole entry, one chain of several): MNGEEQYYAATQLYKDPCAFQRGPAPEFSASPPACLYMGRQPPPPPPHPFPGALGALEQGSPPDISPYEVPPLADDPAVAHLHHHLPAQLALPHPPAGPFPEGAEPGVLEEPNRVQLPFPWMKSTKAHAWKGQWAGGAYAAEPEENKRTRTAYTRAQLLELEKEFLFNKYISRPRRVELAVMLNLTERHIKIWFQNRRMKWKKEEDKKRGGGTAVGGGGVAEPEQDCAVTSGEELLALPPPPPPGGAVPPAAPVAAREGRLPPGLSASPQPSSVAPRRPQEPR

B1: CMV-639 to -594 (dsDNA)
DNA 1: TATATGTACATTTATATTGGCTCATGTCCAATATGACCGCCATGTTGGCATTGATT
DNA 2: AATCAATGCCAACATGGCGGTCATATTGGACATGAGCCAATATAAATGTACATATA
With B1, the binding result with CDP (CUX1), in the data set with PDX1 [1] and in the data set with SATB1 was “no binding” throughout.

B2: CMV-593 to -549 (dsDNA)
DNA 1: GGCATTGATTATTGACTAGTTATTAATAGTAATCAATTACGGGGTCATTAGTTCA
DNA 2: TGAACTAATGACCCCGTAATTGATTACTATTAATAACTAGTCAATAATCAATGCC
Consider B2, for which the binding result in the data set with PDX1 [2] and in the data set with CDP (CUX1) was “binds” in each case.

B3: CMV-687 to -640 (dsDNA)
DNA 1: TAAATCAATATTGGCTATTGGCCATTGCATACGTTGTATCTATATCATAATATGTACA
DNA 2: TGTACATATTATGATATAGATACAACGTATGCAATGGCCAATAGCCAATATTGATTTA
Turning to B3, the binding result with CDP (CUX1) is “binds”.

For the origin of these results see patent US20060035214, “Screening methods for identifying inhibitors of herpesviral replication” (IRM LLC, a Delaware Limited Liability Company, published 2006).
